In paper PMC8543371 (Nature microbiology, 2021):
Changes are numbered by the printed parent chain. Names and notes keep the numbering of the source.

B1: AZD8895 P99V (heavy chain) (antibody, V domains shown)
VH: QMQLVQSGPEVKKPGTSVKVSCKASGFTFMSSAVQWVRQARGQRLEWIGWIVIGSGNTNYAQKFQERVTITRDMSTSTAYMELSSLRSEDTAVYYCAAVYCSSISCNDGFDIWGQGTMVTVSS
VL: not shown
B2: AZD8895 D108A (heavy chain) (antibody, V domains shown)
VH: B1 VH with V99P, D108A
VL: not shown
B3: AZD8895 D108N (heavy chain) (antibody, V domains shown)
VH: B1 VH with V99P, D108N
VL: not shown
B4: AZD8895 P99N (heavy chain) (antibody, V domains shown)
VH: B1 VH with V99N
VL: not shown
B5: AZD8895 D108E (heavy chain) (antibody, V domains shown)
VH: B1 VH with V99P, D108E
VL: not shown

Target: recombinant SARS-CoV-2 S 6P protein (SARS-CoV-2, Wuhan-Hu-1 reference …, UniProt P0DTC2, stabilised)
Experiment: ELISA

Binder | binding result
B1 | binds
B2 | binds
B3 | binds
B4 | binds
B5 | binds
